The target in data set [1] is T1, KLC1 TPR domain.
T1 construct: also called isolated TPR domains; KLC-1 TPR protein; source: E. coli BL21(DE3), purified (His-Trap, SEC)
Kind of data set: fluorescence polarisation; TAMRA-conjugated peptide at 150 nM, increasing KLC1/2 TPR protein (typically 0–25 μM); 25 mM HEPES pH 7.4, 5 mM β-mercaptoethanol, 150 mM NaCl; room temperature; one-site specific binding model. The settings on record: both partners purified. (In general: Polarisation of emitted light reports the rotation of a fluorescent probe.)

The target of data set [2] is T2, KLC2 TPR domain.
T2 construct: kinesin light chain 2 (KLC2), TPR domain, residues A196-K480, in pET28His-Thrombin; source: E. coli BL21(DE3), purified (His-Trap, SEC)
The description is as above. Conditions: both partners purified.

Data set [3] deals with the molecule itself. The data set can be described thus: AUC; sedimentation equilibrium, 20 °C, PBS, 100 μM total peptide, 44–60 krpm, single ideal species model.

From PMC13078783, “Kinesin-1 conformational dynamics are controlled by a cargo-sensitive TPR switch” (eLife, 2026) come the findings set out here.

No end group written: not given here.

For the molecule ENEALKDEVKELLQALEELAVNYDQLSQ-NH2 (also: TAMRA-conjugated, position not given here) [Eng-TDS], the values for the dissociation constant Kd in data set [1] and in data set [2] were roughly 25 µM and 2.7 µM, respectively. Also, the “stoichiometry N” value in data set [3] turned out to be 2.

The term Kd denotes the constant that tells how readily two partners part at equilibrium. Higher therefore signals weaker binding. As usually defined, the stoichiometry N is the number of molecules, sites or subunits per partner or assembly.
